{"source": "patent US11311610B2", "about": "“Immune-modulating agents and uses therefor” (UNIVERSITY OF TECHNOLOGY SYDNEY, priority 2010, dated 2022)", "molecules": {"B1": {"name": "FhHDM-1: 90-residue polypeptide from F. hepatica, Helminth Defense Molecule-1 (SEQ ID NO:24); recombinant form minus N-terminal signal peptide, expressed in E. coli (protein, listed as Fasciola hepatica)", "chain": "MRFIVLLCLAEVLLAAYVEARPSEESREKLRESGRKMVKALRDAVTKAYEKARDRAMAYLAKDNLGEKITEVITILLNRLTDRLEKYAGN"}}, "key": {"[1]": {"system": "ATPase activity associated with lysosomal membranes (equivalent to vATPase activity)", "experiment": "ATPase activity of enriched lysosomal membranes", "format": "biochemical, murine", "details": "lysosomal membranes from RAW264.7 macrophage lysates", "experimental": "FIG. 17 is a graphical representation showing that FhHDM-1 P3 inhibits ATPase activity associated with lysosomal membranes in a concentration-dependent manner. A cellular fraction enriched for lysosomes was prepared by sequential centrifugation of RAW264.7 macrophage lysates. The lysosomal membranes were recovered and assayed (with or without HDM peptides) for ATPase activity using a commercially available kit.\nFIG. 18 is a diagrammatic representation showing a sequence alignment of various synthetic HDM peptides. The amphipathic helix is shaded in grey as are the mutated residues in peptides nonHP and 2Pro. NonHP is a variant of FhHDM-1 P3 in which the hydrophobic face of the FhHDM-1 amphipathic helix was removed. 2Pro is a variant of FhHDM-1 P3 in which two prolines substitutions were incorporated to disrupt the alpha-helix. Cons_p3 is a consensus peptide corresponding to various FhHDM-1 homologs. All peptides in the alignment were tested for their ability to inhibit the ATPase activity associated with enriched lysosomal membranes (prepared from RAW macrophages). Those with inhibitory activity are shown in bold text.\nA cellular fraction enriched for lysosomes was prepared by sequential centrifugation of RAW264.7 macrophage lysates. The lysosome pellet was extracted with water and the resulting lysosomal membranes were recovered and assayed (with or without HDM peptides) for ATPase activity using a commercially available kit."}, "peritoneal macrophages": {"system": "peritoneal macrophages", "experiment": "Alternative activation of peritoneal macrophages in mice (RT-PCR)", "format": "in vivo", "details": "Balb/c mice, three i.p. injections of 5 μg", "experimental": "FIG. 7 is a photographic representation showing the results of a RT-PCR analysis of macrophage RNA isolated from Balb/c mice given three i.p. injections of 5 μg native FhHDM-1 (NFh6) or recombinant FhHDM-1 (FH6).\nBalb/c mice were given three intraperitoneal (i.p.) injections of 5 μg native (NFh6) or recombinant FhHDM-1."}, "human monocytes": {"system": "human monocytes", "experiment": "Activation marker expression on stimulated human monocytes (flow cytometry)", "format": "cell-based", "details": "human monocytes stimulated 40 h with 10 μg/mL"}, "[2]": {"system": "LPS-induced inflammatory response", "experiment": "Endotoxin (LPS)-induced inflammation in mice, co-injection", "format": "in vivo, BALB/c mice", "experimental": "FIG. 9 is a graphical representation showing LPS neutralization by FhHDM-1. The ability of FhHDM-1 (Δ), FhHDM-1 p1 (●) or FhHDM-1 p3 (▪) to bind to LPS was investigated by (A) incubating a range of concentrations of proteins (0.02-2 μg/well) in an LPS-coated (100 ng/well) microtitre plate. Bound peptides were detected by ELISA using rabbit anti-FhHDM-1 as a primary antibody. (B) FhHDM-1 or derived peptides (0.1 μg) were incubated in the presence of LPS (0.05-5 μg/well) and bound peptides measured as described above. Binding of peptides to the LPS-immobilized plates was expressed as a percentage of that measured for 2 μg (for panel A) or 0.1 μg (for panel B) of FhHDM-1. Data are the means±SD from three separate experiments. (C) FhHDM-1 and FhHDM-1 p3 but not FhHDM-1 p1 reduced the interaction between LPS and LBP as effectively as LL-37. LPS-coated microtitre plates were incubated with 5 μg/well of LL-37, FhHDM-1 or derived peptides for 1 h prior to the addition of 10% human sera in PBS. Interaction of LBP with LPS was measured by ELISA using an anti-LBP primary antibody and expressed as a percentage of that detected for 10% sera in the absence of added peptides. Data are the mean±SD of three separate experiments. Statistical significance was calculated using the student t-test and represent a comparison to the binding of 10% sera to immobilized LPS. (D) Binding of FITC-conjugated LPS to RAW264.7 cells was inhibited by LL-37, FhHDM-1 and peptides. RAW264.7 cells (5×10^5 cells/mL) were incubated with 1 μg/mL of FITC-conjugated LPS in the presence of increasing concentrations (0.1-10 μg/mL) of FhHDM-1, FhHDM-1 p1 and FhHDM-1 p3 and LL-37 in RPMI 1640 containing 10% FBS for 20 min at 4° C. The binding of FITC-LPS was analyzed by flow cytometry. LPS binding was expressed as a percentage of the mean fluorescence obtained for the addition of FITC-LPS to cells in the absence of peptides. Data are the mean±SD of two independent experiments. (E) FhHDM-1 and FhHDM-1 p3 both suppress the inflammatory response induced by LPS in mice. BALB/c mice were intra-peritoneally injected with 1 μg of LPS alone or combined with 1 μg of FhHDM-1, FhHDM-1 p3 or LL-37. Two hours later, sera was collected and serum levels of TNF and (F) IL-10 measured by ELISA. (G) Peritoneal macrophages were isolated, cultured unstimulated in media overnight and then levels of TNF and (H) IL-10 in the culture measured by ELISA. Data are the mean±SD of six mice in each group. Statistical significance represents a comparison to the levels of cytokines secreted by mice given LPS only.\nHuman Defense peptides protect against harmful inflammatory responses by preventing activation of macrophages by classical TLR ligands such as LPS (Scott et al. 2002, J. Immunol. 169, 3883-3891). Here, the inventors employed a murine model to examine whether FhHDM-1 and derived peptides can suppress LPS-induced Th1 inflammation. BALB/c mice were injected intra-peritoneally with 1 μg of LPS alone or LPS combined with 1 μg of FhHDM-1, FhHDM-1 p3 or LL-37. Two hours later, sera was collected and serum levels of the pro-inflammatory mediators TNF and IL-10 were measured by ELISA. […] Because macrophages are the main source of pro-inflammatory mediators in this murine model of inflammation, peritoneal macrophages were isolated from treated mice (LPS±FhHDM-1, peptides or LL-37 as described above), cultured unstimulated in media overnight and then levels of TNF and IL-10 in the culture media were measured by ELISA.\nSix week-old female BALB/c mice were purchased from ARC (Perth, Australia) and maintained according to the guidelines of the University of Technology Sydney Animal Care and Ethics committee. For the analysis for endotoxin-induced inflammation, mice were intra-peritoneally injected with 1 μg of E. coli LPS (serotype 111:B4; Sigma) either with or without 1 μg FhHDM-1 or derived peptides. After 2 h mice were sacrificed by cervical dislocation. […]"}, "[3]": {"details": "BALB/c mice, 1 μg LPS mixed with 1 μg i.p., 2 h"}, "[4]": {"details": "macrophages from treated mice, cultured unstimulated overnight"}}, "data": [{"molecule": "KARDRAMAYLAKDNLGEKITEVITILLNRL (FhHDM-1 peptide 1 comprising a truncated amphipathic helix contained in FhHDM-1) [FhHDM-1 p1, peptide in which the amphipathic helix is truncated]", "values": [{"measurement": "ATPase activity associated with lysosomal membranes", "setting": "[1]", "value": "did not inhibit ATPase activity"}]}, {"molecule": "B1", "values": [{"measurement": "expression of Arg-1 and Ym1 in isolated peritoneal macrophages", "setting": "peritoneal macrophages", "value": "increased expression"}, {"measurement": "expression of markers of alternative activation (CD163 and CD206)", "setting": "human monocytes", "value": "increased expression"}, {"measurement": "expression of markers of the classical phenotype (CD86 and HLA-DR)", "setting": "human monocytes", "value": "decreased expression"}, {"measurement": "serum levels of IL-10", "setting": "[2]; [3]", "value": "significant reduction"}, {"measurement": "serum levels of TNF", "setting": "[2]; [3]", "value": "significant reduction"}, {"measurement": "LPS-induced secretion of IL-10 from peritoneal macrophages", "setting": "[2]; [4]", "value": "significantly inhibited"}, {"measurement": "TNF secreted from peritoneal macrophages", "setting": "[2]; [4]", "value": "significantly reduced"}, {"measurement": "ATPase activity associated with lysosomal membranes", "setting": "[1]", "value": "did not inhibit ATPase activity"}]}]}
